From publication PMC12072466, “Mechanisms of Viral DNA Replication of Human Papillomavirus: E2 Protein-Dependent Recruitment of E1 DNA Helicase to the Origin of DNA Replication” (International Journal of Molecular Sciences, 2025)

Experiments:
E1 helicase;E2 [1] = target: T1, E1 helicase;E2 (Human papillomavirus 16 (Methods 4.2; …, UniProt P03114;P03120 1-649;1-365, |); assay: EMSA; 4 mM Mg2+, 1.4 mM ATP; E2 2.8 nM, E1 43-347 nM; C3* complex even at low E1; details: protein: recombinant;recombinant; tags: C-terminal 10xHis;C-terminal 10xHis; chain copies: 6;2; label: 5' 32P; blunt
T1 sequence (P03120 whole entry, one chain of several): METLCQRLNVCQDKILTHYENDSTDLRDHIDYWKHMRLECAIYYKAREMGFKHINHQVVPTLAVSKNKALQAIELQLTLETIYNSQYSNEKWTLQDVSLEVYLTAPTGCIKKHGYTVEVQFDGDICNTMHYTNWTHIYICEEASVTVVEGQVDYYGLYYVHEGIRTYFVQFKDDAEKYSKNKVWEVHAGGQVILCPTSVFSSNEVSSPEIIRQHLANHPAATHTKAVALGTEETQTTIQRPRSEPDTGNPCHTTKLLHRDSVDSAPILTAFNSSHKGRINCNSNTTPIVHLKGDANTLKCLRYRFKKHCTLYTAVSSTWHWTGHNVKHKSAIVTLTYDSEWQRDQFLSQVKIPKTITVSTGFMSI

[2] = target: the molecule itself; assay: dynamic light scattering; purified E1 in solution; oligomeric state; conditions not shown (Figure S3)
E2 [3] = target: T2, E2 (Human papillomavirus 16 (Methods 4.2; …, UniProt P03120 1-365); assay: EMSA; 4 mM Mg2+, 1.4 mM ATP; E2 2.8 nM; C1* complex, E2 dimer; details: protein: recombinant; tags: C-terminal 10xHis; chain copies: 2; label: 5' 32P; blunt
T2 sequence (P03120 whole entry): as the sequence (P03120 whole entry, one chain of several) above

E1 helicase;E2 [4] = target: T1, E1 helicase;E2; assay: EMSA; 4 mM Mg2+, 1.4 mM ATP; E2 2.8 nM, E1 43-347 nM; C2* and C3* complexes; details: protein: recombinant;recombinant; tags: C-terminal 10xHis;C-terminal 10xHis; chain copies: 6;2; label: 5' 32P; blunt
E2 [5] = target: T2, E2; assay: EMSA; 4 mM Mg2+, 1.4 mM ATP; E2 2.8 nM; C1* complex, two E2 dimers; details: protein: recombinant; tags: C-terminal 10xHis; chain copies: 2; label: 5' 32P; blunt

B1: Oligo II, E2 BS1+2 (50 bp) (dsDNA)
DNA 1: GGCGGGACCGAAAACGGTTCAACCGAAAACGGTTATATATAAACCAGCCC
DNA 2: GGGCTGGTTTATATATAACCGTTTTCGGTTGAACCGTTTTCGGTCCCGCC
binding result (E1 helicase;E2 [1]): binds

B2: full-length HPV16 E1 helicase (enzyme)
chain: MADPAGTNGEEGTGCNGWFYVEAVVEKKTGDAISDDENENDSDTGEDLVDFIVNDNDYLTQAETETAHALFTAQEAKQHRDAVQVLKRKYLVSPLSDISGCVDNNISPRLKAICIEKQSRAAKRRLFESEDSGYGNTEVETQQMLQVEGRHETETPCSQYSGGSGGGCSQYSSGSGGEGVSERHTICQTPLTNILNVLKTSNAKAAMLAKFKELYGVSFSELVRPFKSNKSTCCDWCIAAFGLTPSIADSIKTLLQQYCLYLHIQSLACSWGMVVLLLVRYKCGKNRETIEKLLSKLLCVSPMCMMIEPPKLRSTAAALYWYKTGISNISEVYGDTPEWIQRQTVLQHSFNDCTFELSQMVQWAYDNDIVDDSEIAYKYAQLADTNSNASAFLKSNSQAKIVKDCATMCRHYKRAEKKQMSMSQWIKYRCDRVDDGGDWKQIVMFLRYQGVEFMSFLTALKRFLQGIPKKNCILLYGAANTGKSLFGMSLMKFLQGSVICFVNSKSHFWLQPLADAKIGMLDDATVPCWNYIDDNLRNALDGNLVSMDVKHRPLVQLKCPPLLITSNINAGTDSRWPYLHNRLVVFTFPNEFPFDENGNPVYELNDKNWKSFFSRTWSRLSLHEDEDKENDGDSLPTFKCVSGQNTNTL
notes: Replication protein E1 (DNA helicase) of human papillomavirus type 16, full-length, codon-optimized synthetic gene in pET28a; about 75 kDa on SDS-PAGE; Hexamer in solution by dynamic light scattering; also called HPV E1; E1 DNA helicase
stoichiometry N [2]: 6

B3: Oligo III, E2 BS (24 bp) (dsDNA)
DNA 1: CTTGCAACCGTTTTCGGTTGCCCT
DNA 2: AGGGCAACCGAAAACGGTTGCAAG
binding result (E2 [3]): binds

B4: Oligo I, E2 BS1+2+E1BS (124 bp) (dsDNA)
DNA 1: GTAACCCACACCCTACATATTTCCTTCTTATACTTAATAACAATCTTAGTTTAAAAAAGAGGAGGGACCGAAAACGGTTCAACCGAAAACGGTTATATATAAACCAGCCCAAAAAATTAGCAGA
DNA 2: TCTGCTAATTTTTTGGGCTGGTTTATATATAACCGTTTTCGGTTGAACCGTTTTCGGTCCCTCCTCTTTTTTAAACTAAGATTGTTATTAAGTATAAGAAGGAAATATGTAGGGTGTGGGTTAC
binding result (E1 helicase;E2 [4]): binds
binding result (E2 [5]): binds
